This note sets out measurements from patent US20030072752A1 (GENERAL HOSPITAL CORPORATION A MASSACHUSETTS, published 2003).

Experiment [1] addresses T1, bovine cathepsin L (bovine, UniProt P25975 118-334, limits assumed).
T1 construct: also called chatepsin L
Put plainly: enzyme inhibition, Dixon plots at different substrate concentrations (Z-Phe-Arg-MCA).

Experiment [2] has as its target T1, bovine cathepsin L. Description: enzyme inhibition (method not restated here).
The target in another experiment is papain (UniProt P00784). Description: enzyme inhibition, Dixon plots at different substrate concentrations (BANA).
Experiment [3] concerns the target T1, bovine cathepsin L. Put plainly: enzyme inhibition (method and origin of the value not stated).

T1 sequence (P25975 118-334 limits assumed): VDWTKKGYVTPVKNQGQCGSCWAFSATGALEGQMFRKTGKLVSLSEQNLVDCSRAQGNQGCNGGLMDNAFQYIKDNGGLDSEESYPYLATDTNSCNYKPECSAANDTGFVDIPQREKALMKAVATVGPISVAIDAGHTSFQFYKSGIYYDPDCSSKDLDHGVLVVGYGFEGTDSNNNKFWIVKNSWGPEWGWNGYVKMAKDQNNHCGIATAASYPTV
papain, sequence (P00784 134-345 limits assumed): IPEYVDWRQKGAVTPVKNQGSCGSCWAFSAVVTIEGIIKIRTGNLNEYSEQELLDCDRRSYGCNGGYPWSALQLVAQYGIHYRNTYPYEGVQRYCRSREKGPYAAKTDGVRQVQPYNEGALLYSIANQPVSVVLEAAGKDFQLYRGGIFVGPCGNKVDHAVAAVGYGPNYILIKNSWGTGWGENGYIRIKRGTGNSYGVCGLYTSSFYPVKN

As for “psoriastatin preparation (purified from psoriatic scale extract)”, the Ki with bovine cathepsin L [1] was 1.9 nM; with bovine cathepsin L [2], 5.9 nM; with papain, 1.68 nM.

B1: squamous cell carcinoma-antigen (SCC-A) (other, UniProt P29508 1-390, looked up)
chain: MNSLSEANTKFMFDLFQQFRKSKENNIFYSPISITSALGMVLLGAKDNTAQQIKKVLHFDQVTENTTGKAATYHVDRSGNVHHQFQKLLTEFNKSTDAYELKIANKLFGEKTYLFLQEYLDAIKKFYQTSVESVDFANAPEESRKKINSWVESQTNEKIKNLIPEGNIGSNTTLVLVNAIYFKGQWEKKFNKEDTKEEKFWPNKNTYKSIQMMRQYTSFHFASLEDVQAKVLEIPYKGKDLSMIVLLPNEIDGLQKLEEKLTAEKLMEWTSLQNMRETRVDLHLPRFKVEESYDLKDTLRTMGMVDIFNGDADLSGMTGSRGLVLSGVLHKAFVEVTEEGAEAAAATAVVGFGSSPASTNEEFHCNHPFLFFIRQNKTNSILFYGRFSSP
With B1, the inhibition constant Ki with bovine cathepsin L [3] amounted to 0.067 nM.

For orientation: Ki means a dissociation constant, usually derived from enzyme kinetics or from competition with a known ligand. High values mean weaker binding, low ones tighter binding.
